Source: patent publication US20110112279A1

Molecular target: receptor for STOP-1 on the cell surface (unidentified; HeLa, HT1080, HUVEC and MDA-MB-435 cells) (human)
Assay: flow cytometry on MDA-MB-435 cells, flag-tagged STOP-1 alone, anti-flag M2-FITC detection; detection antibody alone gave approximately 7.99

Substance: flag-tagged full length human STOP-1 (from UniProt Q96CG8 31-243) (ligand)
- geometric mean value of the signal intensity: 13.2
